Measured values: US20190062425A1 (BETH ISRAEL DEACONESS MEDICAL CENTER, published 2019)

Target: T1, human transmembrane-4 L six family member-1 (TM4SF1), full-length (human, UniProt P30408 1-202, N-glycosylated at N129 and N159 (ECL2))
T1 construct: whole, on cells; Four-transmembrane plasma membrane glycoprotein; It was tested on cells (HUVEC, transduced HDF and HEMn), in tissue sections and on immunoblots; also called FL-TM4SF1; FL
T1 sequence (looked up): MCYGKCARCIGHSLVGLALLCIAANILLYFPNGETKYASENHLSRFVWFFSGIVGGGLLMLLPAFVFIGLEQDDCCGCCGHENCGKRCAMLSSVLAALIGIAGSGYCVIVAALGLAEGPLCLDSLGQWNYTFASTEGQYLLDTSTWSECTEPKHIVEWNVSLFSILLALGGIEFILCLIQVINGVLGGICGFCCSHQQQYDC
Test: method not stated

- Kd: ~1 nM
B1: 8G4 antibody (anti-TM4SF1 mouse monoclonal antibody produced by hybridoma mouse cell line 8G4-5-13-13F, PTA-120523) (antibody, V domains shown)
VH: EVILVESGGGLVKPGGSLKLSCAASGFTFSSFAMSWVRQTPEKRLEWVATISSGSIYIYYTDGVKGRFTISRDNAKNTVHLQMSSLRSEDTAMYYCARRGIYYGYDGYAMDYWGQGTSVTVSS
VL: AVVMTQTPLSLPVSLGDQASISCRSSQSLVHSNGNTYLHWYMQKPGQSPKVLIYKVSNRFSGVPDRFSGSGSGTDFTLKISRVEADDLGIYFCSQSTHIPLAFGAGTKLELK
notes: Mouse monoclonal antibody from a hybridoma; both have the length of variable domains; also called anti-TM4SF1 antibody 8G4
